Source: paper PMC10849588

Target: GMPCPP-stabilized, fluorescently labeled, biotinylated microtubules (untreated) (UniProt P02550)

% of (+)-end movements, Clusters, 110 mM KCl: 41%
% of (+)-end movements, Monomers (single molecules), 110 mM KCl: 29%
% of total runs >60 s, Monomers (single molecules), 110 mM KCl: 17%
Substance: wild-type full-length Cin8, GFP- and 6x His-tagged (from UniProt P27895 1-1000) (natural protein)
